Test results taken from patent US20260125454A1 (SHANGHAI JUNSHI BIOSCIENCES, published 2026).

T1: Biotin-huCGRPaSA (human, not fully specified; biotin (position not given))
T1 construct: exact construct ('aSA') not explained; also called Biotin CGRPaSA; full-length (1-37) CGRP
T1 peptide: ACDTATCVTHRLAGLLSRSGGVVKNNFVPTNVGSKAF


Target: T1, Biotin-huCGRPaSA
Assay: ELISA, supernatant; relative to chimeric C245
How it was run: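 Plates coated with biotin-CGRPaSA at 1.0 μg/mL (90 min, 37°C) and blocked with 2% BSA. Humanized antibodies and chimeric C245 reference, 2.5-fold serial dilutions from 1000 ng/mL, bound 60 min at 37°C. Detection by HRP anti-human IgG (Fc), TMB 15 min, read at 450/620 nm.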

Binder | Relative binding activity, % [%]
hu78 (antibody, V domains shown, 1F5 HC-4/3H10 LC2-2) VH: QVQLVQSGSELKKPGASVKVSCKASGYTFTDFNMHWVRQAPGQGLEWMGYIYPYNGDVVYNQNFTNRFVLSVDSSSSTAYLQISSLKAEDTAVYYCAREGLGGYWGQGTLVTVSS VL: DIQLTQSPSSLSASVGDRVTITCKASQNIDYGGYSYMNWYQQKPGKAPKVLIYSVFNLESGVPSRFSGSGSGTDFTLTISSLQPEDFATYYCQQSNEAPYTFGQGTKLEIK | 64
hu81 (antibody, V domains shown, 1F5 HC-5/1A2 LC2-3) VH: QVQLVQSGAEVKKPGASVKVSCKASGYTFIDFNMHWVRQAPGQRLEWMGYIYPYNADVVYNQDFTNRVTLTVDTSSSTAYMELSSLRSEDTAVYYCAREGLGGYWGQGTLVTVSS VL: EIVLTQSPATLSLSPGERATLSCKASQNIDYDGYAYLNWYQQKPGQAPRVLIYSVFNLESGIPARFSGSGSGTDFTLTISSLEPEDFAVYYCQQSNEFPYTFGQGTKLEIK | 96
hu85 (antibody, V domains shown, 1F5 HC-5/1F5 LC1-3) VH: QVQLVQSGAEVKKPGASVKVSCKASGYTFIDFNMHWVRQAPGQRLEWMGYIYPYNADVVYNQDFTNRVTLTVDTSSSTAYMELSSLRSEDTAVYYCAREGLGGYWGQGTLVTVSS VL: DIVLTQSPASLAVSPGQRATITCKASQNIDFDGYAYMNWYQQKPGQPPKVLIYSVFNLESGVPARFSGSGSGTDFTLTINPVEADDTANYYCQQSHEVPYTFGQGTKLEIK | 76
hu91 (antibody, V domains shown, 1F5 HC-5/3H10 LC2-2) VH: QVQLVQSGAEVKKPGASVKVSCKASGYTFIDFNMHWVRQAPGQRLEWMGYIYPYNADVVYNQDFTNRVTLTVDTSSSTAYMELSSLRSEDTAVYYCAREGLGGYWGQGTLVTVSS VL: DIQLTQSPSSLSASVGDRVTITCKASQNIDYGGYSYMNWYQQKPGKAPKVLIYSVFNLESGVPSRFSGSGSGTDFTLTISSLQPEDFATYYCQQSNEAPYTFGQGTKLEIK | 98
hu94 (antibody, V domains shown, 2A2 HC-1/1A2 LC2-3) VH: QVQLVQSGAEVKKPGASVKVSCKASGYTFTDYNMHWVRQAPGQRLEWMGYVYPYNGGSAYNQKFKSRVTLTVDTSSSTAYMELSSLRSEDTAVYYCAREGLGGYWGQGTLVTVSS VL: EIVLTQSPATLSLSPGERATLSCKASQNIDYDGYAYLNWYQQKPGQAPRVLIYSVFNLESGIPARFSGSGSGTDFTLTISSLEPEDFAVYYCQQSNEFPYTFGQGTKLEIK | 48
hu98 (antibody, V domains shown, 2A2 HC-1/1F5 LC1-3) VH: QVQLVQSGAEVKKPGASVKVSCKASGYTFTDYNMHWVRQAPGQRLEWMGYVYPYNGGSAYNQKFKSRVTLTVDTSSSTAYMELSSLRSEDTAVYYCAREGLGGYWGQGTLVTVSS VL: DIVLTQSPASLAVSPGQRATITCKASQNIDFDGYAYMNWYQQKPGQPPKVLIYSVFNLESGVPARFSGSGSGTDFTLTINPVEADDTANYYCQQSHEVPYTFGQGTKLEIK | 76
hu99 (antibody, V domains shown, 2A2 HC-1/1F5 LC1-4) VH: QVQLVQSGAEVKKPGASVKVSCKASGYTFTDYNMHWVRQAPGQRLEWMGYVYPYNGGSAYNQKFKSRVTLTVDTSSSTAYMELSSLRSEDTAVYYCAREGLGGYWGQGTLVTVSS VL: DIVLTQSPDSLAVSLGERATINCKASQNIDFDGYAYMNWYQHKPGQPPKVLIYSVFNLESGVPDRFSGSGSGTDFTLTISSLQAEDVAVYYCQQSHEVPYTFGQGTKLEIK | 74
hu103 (antibody, V domains shown, 2A2 HC-1/3H10 LC2-1) VH: QVQLVQSGAEVKKPGASVKVSCKASGYTFTDYNMHWVRQAPGQRLEWMGYVYPYNGGSAYNQKFKSRVTLTVDTSSSTAYMELSSLRSEDTAVYYCAREGLGGYWGQGTLVTVSS VL: DIVLTQSPDSLAVSLGERATINCKASQNIDYGGYSYMNWYQQKPGQPPKVLIYSVFNLESGVPDRFSGSGSGTDFTLTISSLQAEDVAVYYCQQSNEAPYTFGQGTKLEIK | 88
hu104 (antibody, V domains shown, 2A2 HC-1/3H10 LC2-2) VH: QVQLVQSGAEVKKPGASVKVSCKASGYTFTDYNMHWVRQAPGQRLEWMGYVYPYNGGSAYNQKFKSRVTLTVDTSSSTAYMELSSLRSEDTAVYYCAREGLGGYWGQGTLVTVSS VL: DIQLTQSPSSLSASVGDRVTITCKASQNIDYGGYSYMNWYQQKPGKAPKVLIYSVFNLESGVPSRFSGSGSGTDFTLTISSLQPEDFATYYCQQSNEAPYTFGQGTKLEIK | 45
hu146 (antibody, V domains shown, 3E5 HC-1/1A2 LC2-3) VH: QVQLVQSGAEVKKPGASVKVSCKTSGYTFTDYNMHWVRQAPGQRLEWMGYISPYNGGTAYNQKFKFRVTLTVDTSSSTAYMELSSLRSEDTAVYYCAREGLGGYWGQGTLVTVSS VL: EIVLTQSPATLSLSPGERATLSCKASQNIDYDGYAYLNWYQQKPGQAPRVLIYSVFNLESGIPARFSGSGSGTDFTLTISSLEPEDFAVYYCQQSNEFPYTFGQGTKLEIK | 107
hu150 (antibody, V domains shown, 3E5 HC-1/1F5 LC1-3) VH: QVQLVQSGAEVKKPGASVKVSCKTSGYTFTDYNMHWVRQAPGQRLEWMGYISPYNGGTAYNQKFKFRVTLTVDTSSSTAYMELSSLRSEDTAVYYCAREGLGGYWGQGTLVTVSS VL: DIVLTQSPASLAVSPGQRATITCKASQNIDFDGYAYMNWYQQKPGQPPKVLIYSVFNLESGVPARFSGSGSGTDFTLTINPVEADDTANYYCQQSHEVPYTFGQGTKLEIK | 64
hu155 (antibody, V domains shown, 3E5 HC-1/3H10 LC2-1) VH: QVQLVQSGAEVKKPGASVKVSCKTSGYTFTDYNMHWVRQAPGQRLEWMGYISPYNGGTAYNQKFKFRVTLTVDTSSSTAYMELSSLRSEDTAVYYCAREGLGGYWGQGTLVTVSS VL: DIVLTQSPDSLAVSLGERATINCKASQNIDYGGYSYMNWYQQKPGQPPKVLIYSVFNLESGVPDRFSGSGSGTDFTLTISSLQAEDVAVYYCQQSNEAPYTFGQGTKLEIK | 74
hu156 (antibody, V domains shown, 3E5 HC-1/3H10 LC2-2) VH: QVQLVQSGAEVKKPGASVKVSCKTSGYTFTDYNMHWVRQAPGQRLEWMGYISPYNGGTAYNQKFKFRVTLTVDTSSSTAYMELSSLRSEDTAVYYCAREGLGGYWGQGTLVTVSS VL: DIQLTQSPSSLSASVGDRVTITCKASQNIDYGGYSYMNWYQQKPGKAPKVLIYSVFNLESGVPSRFSGSGSGTDFTLTISSLQPEDFATYYCQQSNEAPYTFGQGTKLEIK | 32
hu164 (antibody, V domains shown, 3E5 HC-2/1F5 LC1-4) VH: QVQLVQSGAEVKKPGASVKVSCKASGYTFTDYNMHWVRQAPGQRLEWMGYISPYNGGTAYNQKFKFRVTLTVDTSSSTAYMELSSLRSEDTAVYYCAREGLGGYWGQGTLVTVSS VL: DIVLTQSPDSLAVSLGERATINCKASQNIDFDGYAYMNWYQHKPGQPPKVLIYSVFNLESGVPDRFSGSGSGTDFTLTISSLQAEDVAVYYCQQSHEVPYTFGQGTKLEIK | 56
hu168 (antibody, V domains shown, 3E5 HC-2/3H10 LC2-1) VH: QVQLVQSGAEVKKPGASVKVSCKASGYTFTDYNMHWVRQAPGQRLEWMGYISPYNGGTAYNQKFKFRVTLTVDTSSSTAYMELSSLRSEDTAVYYCAREGLGGYWGQGTLVTVSS VL: DIVLTQSPDSLAVSLGERATINCKASQNIDYGGYSYMNWYQQKPGQPPKVLIYSVFNLESGVPDRFSGSGSGTDFTLTISSLQAEDVAVYYCQQSNEAPYTFGQGTKLEIK | 68
hu169 (antibody, V domains shown, 3E5 HC-2/3H10 LC2-2) VH: QVQLVQSGAEVKKPGASVKVSCKASGYTFTDYNMHWVRQAPGQRLEWMGYISPYNGGTAYNQKFKFRVTLTVDTSSSTAYMELSSLRSEDTAVYYCAREGLGGYWGQGTLVTVSS VL: DIQLTQSPSSLSASVGDRVTITCKASQNIDYGGYSYMNWYQQKPGKAPKVLIYSVFNLESGVPSRFSGSGSGTDFTLTISSLQPEDFATYYCQQSNEAPYTFGQGTKLEIK | 16
hu177 (antibody, V domains shown, 3E5 HC-3/1F5 LC1-4) VH: QVQLVQSGAEVKKPGASVKVSCKASGYTFTDYNMHWVRQAPGQGLEWMGYISPYNGGTAYNQKFKFRVTLTVDTSSSTAYMELSRLRSDDTVVYYCAREGLGGYWGQGTLVTVSS VL: DIVLTQSPDSLAVSLGERATINCKASQNIDFDGYAYMNWYQHKPGQPPKVLIYSVFNLESGVPDRFSGSGSGTDFTLTISSLQAEDVAVYYCQQSHEVPYTFGQGTKLEIK | 25
hu181 (antibody, V domains shown, 3E5 HC-3/3H10 LC2-1) VH: QVQLVQSGAEVKKPGASVKVSCKASGYTFTDYNMHWVRQAPGQGLEWMGYISPYNGGTAYNQKFKFRVTLTVDTSSSTAYMELSRLRSDDTVVYYCAREGLGGYWGQGTLVTVSS VL: DIVLTQSPDSLAVSLGERATINCKASQNIDYGGYSYMNWYQQKPGQPPKVLIYSVFNLESGVPDRFSGSGSGTDFTLTISSLQAEDVAVYYCQQSNEAPYTFGQGTKLEIK | 67
hu182 (antibody, V domains shown, 3E5 HC-3/3H10 LC2-2) VH: QVQLVQSGAEVKKPGASVKVSCKASGYTFTDYNMHWVRQAPGQGLEWMGYISPYNGGTAYNQKFKFRVTLTVDTSSSTAYMELSRLRSDDTVVYYCAREGLGGYWGQGTLVTVSS VL: DIQLTQSPSSLSASVGDRVTITCKASQNIDYGGYSYMNWYQQKPGKAPKVLIYSVFNLESGVPSRFSGSGSGTDFTLTISSLQPEDFATYYCQQSNEAPYTFGQGTKLEIK | 31
hu185 (antibody, V domains shown, 3E5 HC-4/1A2 LC2-3) VH: QVQLVQSGAEVKKPGASVKVSCKTSGYTFTDYNMHWVRQAPGQRLEWMGYISPYNAGTAYNQKFKFRVTLTVDTSSSTAYMELSSLRSEDTAVYYCAREGLGGYWGQGTLVTVSS VL: EIVLTQSPATLSLSPGERATLSCKASQNIDYDGYAYLNWYQQKPGQAPRVLIYSVFNLESGIPARFSGSGSGTDFTLTISSLEPEDFAVYYCQQSNEFPYTFGQGTKLEIK | 19
hu189 (antibody, V domains shown, 3E5 HC-4/1F5 LC1-3) VH: QVQLVQSGAEVKKPGASVKVSCKTSGYTFTDYNMHWVRQAPGQRLEWMGYISPYNAGTAYNQKFKFRVTLTVDTSSSTAYMELSSLRSEDTAVYYCAREGLGGYWGQGTLVTVSS VL: DIVLTQSPASLAVSPGQRATITCKASQNIDFDGYAYMNWYQQKPGQPPKVLIYSVFNLESGVPARFSGSGSGTDFTLTINPVEADDTANYYCQQSHEVPYTFGQGTKLEIK | 73
